Here are results for 17 variants from the supplement of paper PMC7125110.

B1: glmS ribozyme (parent)
chain: AUAAAAGCGCCAGAACUACAGAAAUGUAGUUGACGAGGAGGAGGUUUAUCGAAUUUUCGGCGGAUGCCUCCAAA

What all share (conditions): with glucosamine-6-phosphate
In data set [1] the parent is B1. Kind of data set: kcat; higher = faster cleavage; RNA array. A digest of the protocol: (§1)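 Ribozyme variants carrying barcodes were transcribed in situ on sequenced MiSeq chips by E. coli RNA polymerase and tracked at 37 °C with a hybridised Cy3 probe. They were exposed to 40 μM to 10 mM glucosamine-6-phosphate in HEPES/KCl/Mg(OAc)2 buffer. kobs came from exponential decay fits of normalised per-tile medians, and kcat and KM from weighted Michaelis–Menten fits.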

Data set [2] covers variants of B1. Kind of data set: self-cleavage kobs at 2500 uM GlcN6P; higher = faster cleavage; RNA array. A digest of the protocol:
as §1

In data set [3] the parent is B1. In words: self-cleavage kobs at 10000 uM GlcN6P; higher = faster cleavage; RNA array. The procedure, abridged:
as §1

In data set [4] the parent is B1. In words: self-cleavage kobs at 40 uM GlcN6P; higher = faster cleavage; RNA array. The procedure, abridged: as §1
The variants in data set [5] derive from B1. In words: self-cleavage kobs at 640 uM GlcN6P; higher = faster cleavage; RNA array. The procedure, abridged:
as §1

Data set [6] covers variants of B1. In words: KM; higher = weaker cofactor use; RNA array. A digest of the protocol:
as §1

Data set [7] covers variants of B1. In words: self-cleavage kobs at 160 uM GlcN6P; higher = faster cleavage; RNA array. A digest of the protocol: as §1

± gives the standard error. For some assays here: This sample holds only a part of the variants without activity. Bounds are passed on as bounds.

Consider A6U U49A C71G, for which the kcat with glucosamine-6-phosphate [1] turned out to be 3.45e-05 ± 8.5e-06 s⁻¹.
For the variant C11A A12U U45G U55A C70U, the kcat in the data set with glucosamine-6-phosphate [1] worked out at 0.00104 ± 0.00013 s⁻¹. Moreover, the “self-cleavage kobs at 2500 uM GlcN6P” value in the data set with glucosamine-6-phosphate [2] stood at 7.5e-05 ± 3.1e-05 s⁻¹. Besides, in the data set with glucosamine-6-phosphate [3], the “self-cleavage kobs at 10000 uM GlcN6P” value was found to be 0.000245 ± 5.6e-05 s⁻¹.
Regarding A42G G51A, the kcat with glucosamine-6-phosphate [1] is below 1e-05 s⁻¹. In addition, the “self-cleavage kobs at 40 uM GlcN6P” value with glucosamine-6-phosphate [4] was below 1e-05 s⁻¹. Moreover, in the data set with glucosamine-6-phosphate [3], the “self-cleavage kobs at 10000 uM GlcN6P” value was below 1e-05 s⁻¹.
For the variant G32A U54C, in the data set with glucosamine-6-phosphate [1], the kcat is 0.00356 ± 0.0013 s⁻¹. Also, the “self-cleavage kobs at 40 uM GlcN6P” value with glucosamine-6-phosphate [4] worked out at 3.45e-05 ± 1.1e-05 s⁻¹. For the same variant, the “self-cleavage kobs at 640 uM GlcN6P” value with glucosamine-6-phosphate [5] stood at 0.000309 ± 6.5e-05 s⁻¹. The “self-cleavage kobs at 2500 uM GlcN6P” value with glucosamine-6-phosphate [2] is 0.00147 ± 0.00026 s⁻¹. Moreover, the “self-cleavage kobs at 10000 uM GlcN6P” value with glucosamine-6-phosphate [3] was 0.0022 ± 0.00036 s⁻¹.
As to G51A U54A, the kcat in the data set with glucosamine-6-phosphate [1] is below 1e-05 s⁻¹.
As to U47C A52G, in the data set with glucosamine-6-phosphate [1], the kcat stood at 0.000596 ± 8.2e-05 s⁻¹. Moreover, in the data set with glucosamine-6-phosphate [6], the KM came out at 3.55 ± 0.75 mM. Moreover, in the data set with glucosamine-6-phosphate [7], the “self-cleavage kobs at 160 uM GlcN6P” value was determined as 3.5e-05 ± 1.7e-05 s⁻¹. Moreover, the “self-cleavage kobs at 640 uM GlcN6P” value in the data set with glucosamine-6-phosphate [5] was determined as 9.21e-05 ± 1.5e-05 s⁻¹. The “self-cleavage kobs at 2500 uM GlcN6P” value in the data set with glucosamine-6-phosphate [2] is 0.000226 ± 4.3e-05 s⁻¹. Also, the “self-cleavage kobs at 10000 uM GlcN6P” value in the data set with glucosamine-6-phosphate [3] is 0.000465 ± 8.9e-05 s⁻¹.
In the case of G37A G62A, in the data set with glucosamine-6-phosphate [1], the kcat is below 1e-05 s⁻¹. In the data set with glucosamine-6-phosphate [4], the “self-cleavage kobs at 40 uM GlcN6P” value was below 1e-05 s⁻¹. The “self-cleavage kobs at 640 uM GlcN6P” value in the data set with glucosamine-6-phosphate [5] was below 1e-05 s⁻¹. Also, in the data set with glucosamine-6-phosphate [3], the “self-cleavage kobs at 10000 uM GlcN6P” value is below 1e-05 s⁻¹.
Take G51U C61G: the kcat with glucosamine-6-phosphate [1] was below 1e-05 s⁻¹.
As for U30G U69A, in the data set with glucosamine-6-phosphate [1], the kcat is 8.59e-05 ± 2.5e-05 s⁻¹. Besides, in the data set with glucosamine-6-phosphate [7], the “self-cleavage kobs at 160 uM GlcN6P” value came to 3.45e-05 ± 1.7e-05 s⁻¹. Further, the “self-cleavage kobs at 640 uM GlcN6P” value in the data set with glucosamine-6-phosphate [5] came to 4.5e-05 ± 1.1e-05 s⁻¹. The “self-cleavage kobs at 2500 uM GlcN6P” value with glucosamine-6-phosphate [2] worked out at 0.00013 ± 2e-05 s⁻¹. In addition, the “self-cleavage kobs at 10000 uM GlcN6P” value with glucosamine-6-phosphate [3] was determined as 6.73e-05 ± 1.4e-05 s⁻¹.
On to C16G U55A, for which, in the data set with glucosamine-6-phosphate [1], the kcat turned out to be 0.00566 ± 0.0022 s⁻¹. In the data set with glucosamine-6-phosphate [4], the “self-cleavage kobs at 40 uM GlcN6P” value worked out at 0.00015 ± 1.9e-05 s⁻¹. In the data set with glucosamine-6-phosphate [7], the “self-cleavage kobs at 160 uM GlcN6P” value came out at 0.000313 ± 6.3e-05 s⁻¹. Also, the “self-cleavage kobs at 640 uM GlcN6P” value with glucosamine-6-phosphate [5] came out at 0.000819 ± 0.00014 s⁻¹. Further, the “self-cleavage kobs at 2500 uM GlcN6P” value with glucosamine-6-phosphate [2] amounted to 0.00327 ± 0.00047 s⁻¹. Further, the “self-cleavage kobs at 10000 uM GlcN6P” value with glucosamine-6-phosphate [3] amounted to 0.00463 ± 0.00062 s⁻¹.
In the case of U54C G66U, in the data set with glucosamine-6-phosphate [1], the kcat came to 0.0027 ± 0.00084 s⁻¹. In addition, in the data set with glucosamine-6-phosphate [6], the KM was determined as 3.38 ± 1.6 mM. Moreover, in the data set with glucosamine-6-phosphate [4], the “self-cleavage kobs at 40 uM GlcN6P” value stood at 6.62e-05 ± 1.2e-05 s⁻¹. Moreover, in the data set with glucosamine-6-phosphate [7], the “self-cleavage kobs at 160 uM GlcN6P” value was found to be 0.000108 ± 2.3e-05 s⁻¹. Moreover, in the data set with glucosamine-6-phosphate [5], the “self-cleavage kobs at 640 uM GlcN6P” value turned out to be 0.000359 ± 6.3e-05 s⁻¹. Moreover, in the data set with glucosamine-6-phosphate [2], the “self-cleavage kobs at 2500 uM GlcN6P” value worked out at 0.00132 ± 0.0002 s⁻¹. In the data set with glucosamine-6-phosphate [3], the “self-cleavage kobs at 10000 uM GlcN6P” value is 0.00199 ± 0.00024 s⁻¹.
As for U45C U54C, in the data set with glucosamine-6-phosphate [1], the kcat was determined as 0.00224 ± 0.00051 s⁻¹. The KM in the data set with glucosamine-6-phosphate [6] amounted to 2.24 ± 0.77 mM. Further, in the data set with glucosamine-6-phosphate [7], the “self-cleavage kobs at 160 uM GlcN6P” value amounted to 0.000142 ± 3.9e-05 s⁻¹. The “self-cleavage kobs at 640 uM GlcN6P” value with glucosamine-6-phosphate [5] was 0.00057 ± 0.00012 s⁻¹. In addition, the “self-cleavage kobs at 2500 uM GlcN6P” value with glucosamine-6-phosphate [2] was 0.00105 ± 0.00023 s⁻¹. Besides, the “self-cleavage kobs at 10000 uM GlcN6P” value in the data set with glucosamine-6-phosphate [3] was 0.00213 ± 0.00063 s⁻¹.
For the variant A6U U54G, the kcat with glucosamine-6-phosphate [1] is 0.000293 ± 3e-05 s⁻¹. Also, the KM in the data set with glucosamine-6-phosphate [6] came to 3.96 ± 0.74 mM. For the same variant, the “self-cleavage kobs at 640 uM GlcN6P” value with glucosamine-6-phosphate [5] was 3.62e-05 ± 8.4e-06 s⁻¹. Besides, the “self-cleavage kobs at 2500 uM GlcN6P” value with glucosamine-6-phosphate [2] stood at 0.000122 ± 1.5e-05 s⁻¹. Also, in the data set with glucosamine-6-phosphate [3], the “self-cleavage kobs at 10000 uM GlcN6P” value is 0.000204 ± 2.5e-05 s⁻¹.
Consider G29C A39C, for which, in the data set with glucosamine-6-phosphate [1], the kcat amounted to 0.000582 ± 8.5e-05 s⁻¹. Besides, the KM with glucosamine-6-phosphate [6] is 4.36 ± 1.1 mM. Further, in the data set with glucosamine-6-phosphate [7], the “self-cleavage kobs at 160 uM GlcN6P” value amounted to 6.14e-05 ± 2.9e-05 s⁻¹. The “self-cleavage kobs at 640 uM GlcN6P” value in the data set with glucosamine-6-phosphate [5] stood at 7.25e-05 ± 1.1e-05 s⁻¹. For the same variant, in the data set with glucosamine-6-phosphate [2], the “self-cleavage kobs at 2500 uM GlcN6P” value stood at 0.000212 ± 3e-05 s⁻¹. For the same variant, in the data set with glucosamine-6-phosphate [3], the “self-cleavage kobs at 10000 uM GlcN6P” value was 0.000406 ± 4.2e-05 s⁻¹.
For the variant A12C G13A, the kcat in the data set with glucosamine-6-phosphate [1] is 0.000473 ± 0.00016 s⁻¹. In addition, the “self-cleavage kobs at 640 uM GlcN6P” value in the data set with glucosamine-6-phosphate [5] is 6.42e-05 ± 1.2e-05 s⁻¹. In addition, in the data set with glucosamine-6-phosphate [2], the “self-cleavage kobs at 2500 uM GlcN6P” value turned out to be 0.000302 ± 5.1e-05 s⁻¹. Also, the “self-cleavage kobs at 10000 uM GlcN6P” value in the data set with glucosamine-6-phosphate [3] was determined as 0.00032 ± 5.7e-05 s⁻¹.
In the case of A36C C50G G51A, in the data set with glucosamine-6-phosphate [1], the kcat was below 1e-05 s⁻¹. Further, the “self-cleavage kobs at 160 uM GlcN6P” value with glucosamine-6-phosphate [7] is below 1e-05 s⁻¹.
On to G32A C71G, for which the kcat with glucosamine-6-phosphate [1] came to 0.000224 ± 3.5e-05 s⁻¹. Also, the Michaelis-Menten constant (KM) with glucosamine-6-phosphate [6] came out at 1.19 ± 0.45 mM. In the data set with glucosamine-6-phosphate [7], the “self-cleavage kobs at 160 uM GlcN6P” value came out at 5.06e-05 ± 1.5e-05 s⁻¹. For the same variant, in the data set with glucosamine-6-phosphate [5], the “self-cleavage kobs at 640 uM GlcN6P” value was 6.85e-05 ± 1.1e-05 s⁻¹. Further, the “self-cleavage kobs at 2500 uM GlcN6P” value with glucosamine-6-phosphate [2] amounted to 0.00018 ± 2.8e-05 s⁻¹. Also, in the data set with glucosamine-6-phosphate [3], the “self-cleavage kobs at 10000 uM GlcN6P” value came out at 0.000195 ± 2.2e-05 s⁻¹.

By kcat is commonly meant the number of substrate molecules converted per active site and unit of time at saturation. By KM is commonly meant the concentration of substrate that gives half-maximal velocity.
